Measured values from patent publication US20200207835A1, “SRCP1-BASED THERAPY FOR DISEASES ASSOCIATED WITH PROTEIN AGGREGATION” (THE MEDICAL COLLEGE OF WISCONSIN, INC., priority 2017, published 2020).
Residue numbers refer to the chain shown, from its start. Names may count otherwise. No end group written: not given here.

Experiments:
Htt^Q46 = biological target: T1, Htt^Q46 (Homo sapiens, UniProt P42858, INS38QQQQQQQQQQQQQQQQQQQQQQQQQ); experiment: Thioflavin-T in vitro HttQ46 aggregation assay; format: biochemical; conditions: 3:1 peptide to HttQ46
T1 construct: Huntingtin exon-1 with 46 glutamines (Htt^Q46) in pET-32 was obtained from Addgene; pET-32 fusion tag (N, cleaved yes); host or cells: E. coli BL21
Procedure: Huntingtin exon-1 with 46 glutamines (Htt^Q46) in pET-32 was obtained from Addgene. Htt^Q46 was grown in BL21 cells at 37° C. to an optical density of 0.6 and induced with IPTG at 1 mM overnight at 16° C. After induction cells were spun down at 7,000 rpm for 5 minutes and resuspended in resuspension buffer (15 mM Tris-HCl buffer, pH 8.0). For lysis, lysozyme was added and cells were incubated at 4° C. for 45 minutes. To obtain soluble fraction, lysates were spun down at 12,000 rpm for 10 minutes, after which supernatant was added to 3 ml of Ni-beads (GoldBio) per 100 ml of lysate and tumbled for 4 hours at 4° C. Beads were then washed three times with resuspension buffer and then washed three more times with wash buffer (50 mM Tris-HCl pH 8.0, 150 mM NaCl, 1 mM PMSF, 1 mM EDTA). Protein was then eluted off beads by tumbling overnight at 4° C. in 25 mL of wash buffer with 250 mM imidazole.
Aggregation assays were performed as previously described in Kakkar, V. et al. Briefly, 15 μM Htt^46Q was mixed with 90 μM SRCP1 peptide (GenScript) (1:6, 1:3, 1:1.5) and 10 μM Thioflavin-T (Sigma-Aldrich). All samples were prepared on ice in buffer containing 20 mM Tris-HCl pH 8.0, 50 mM NaCl, 2 mM CaCl2). […] Fluorescence was measured with the excitation at 440 nm and emission at 480 nm, every 5 minutes using a Tecan Plate reader.

[1] = Solubility of SRCP1 peptide in vitro; format: physicochemical; conditions: data not shown
^GFPHtt^ex1Q74 = experiment: GFPHttex1Q74 aggregation in transfected HEK293 cells (fluorescent/confocal microscopy, western blot, filter trap assay); format: cell-based, human; conditions: for ability of SRCP1 mutant to suppress GFPHttex1Q74 aggregation: HEK293, 48 hours post-transfection, western blot and fluorescent microscopy; for ability of SRCP1 point mutant to suppress GFPHttex1Q74 aggregation: HEK293, fluorescence microscopy
Procedure: Transfections were performed with Lipofectamine 2000 (Invitrogen by ThermoFisher Scientific) and adapted from the manufacturer's instructions. Briefly, cells were plated on either 12-well or 6-well plates and transfected at 50-70% confluency. For 12-well transfections, 0.833 μg of DNA per well was mixed with 50 μl of OptiMEM (Gibco by Life Technologies) media and incubated for 5 minutes at room temperature. Lipofectamine 2000 in a 2:1, μl of lipofectamine: μg DNA ratio was mixed with 50 μl of OptiMEM media and incubated for 5 minutes at room temperature. DNA and Lipofectamine were mixed and incubated for 15 minutes at room temperature. Fresh media was added to cells prior to the addition of DNA and lipofectamine. For 6-well transfections, the same protocol is followed except that 1.25 μg of DNA per well and 100 μl of OptiMEM for dilution was used. Media was changed 24 hours post-transfection and cells were harvested 48 hours post-transfection. Prior to harvesting, HEK293 cells were washed three times with ice-cold 1×PBS. Samples were then lysed with either 150 μl of ice-cold NETN (with protease inhibitor) or 1× Laemmli Buffer and sonicated twice for 5-8 seconds.
For proteasome inhibition, 30 hours post-transfection cells would be replenished with DMEM containing either DMSO or 10 μM MG132 (Sigma-Aldrich) for 18 hours. Prior to harvesting, HEK293 cells were washed three times with ice-cold 1×PBS and imaged by fluorescent microscopy with a 20× objective using the Evos FL Auto Imaging System. Cells were then lysed with either 150 μl of ice-cold NETN (with protease inhibitor) or 1× Laemmli Buffer and sonicated twice for 5-8 seconds.
For autophagy inhibition, 24 hours post-transfection cells would be replenished with DMEM and treated with either DMSO or 5 mM 3-Methyladenine (Sigma-Aldrich) for an additional 24 hours. Prior to harvesting, HEK293 cells were washed three times with ice-cold 1×PBS and imaged by fluorescent microscopy with a 20× objective using the Evos FL Auto Imaging System. Cells were then lysed with either 150 μl of ice-cold NETN (with protease inhibitor) or 1× Laemmli Buffer and sonicated twice for 5-8 seconds.
For HEK293s′, slides were prepared by placing coverslips in 6-well plates and incubating with poly-L-lysine hydrobromide (Sigma-Aldrich) for an hour at room temperature. Coverslips were rinsed with 1×PBS three times prior to plating HEK293 cells. HEK293 cells were then transfected and fixed by incubation in 4% paraformaldehyde for 20 minutes at room temperature. Coverslips were mounted with ProLong Gold Antifade reagent and imaged with a 20× objective using the Evos FL Auto Imaging System or with a 40× objective using the Leica TCS SP5 Confocal Microscope System. For confocal, Z-stack images were obtained at […] intervals at 1024×1024 pixel resolution and merged using Fiji.
Following sonication, lysates were subjected to BCA protein assay (ThermoFisher Scientific) and prepared for loading by the addition of 4× laemmli buffer and boiling for four minutes. Samples then loaded on SDS-polyacrylamide gels, ran at 175 V, and transferred onto an Immuno-blot PVDF membrane (Biorad) overnight at 30 V. Membranes were blocked in 5% milk in TBS with 0.1% Tween (TBST) and incubated in primary antibody overnight at 4° C. Following primary, membranes were washed for 10 minutes at room temperature three times with TBST and incubated in secondary for an hour at room temperature. Membranes were then washed for 10 minutes at room temperature three times with TBST and then incubated in buffer for enhanced chemiluminescence (50 mM Na2HPO4; 50 mM Na2CO3; 10 mM NaBO3.4H2O; 250 mM luminol; 90 mM coumaric acid).
For HEK293 lysates, BCA protein assay was used to determine protein concentration. […]

[2] = HEK293, 5 mM 3-MA for 24 hours, without SRCP1

T1 sequence (P42858 with tags, fused parts or gaps with the stated changes): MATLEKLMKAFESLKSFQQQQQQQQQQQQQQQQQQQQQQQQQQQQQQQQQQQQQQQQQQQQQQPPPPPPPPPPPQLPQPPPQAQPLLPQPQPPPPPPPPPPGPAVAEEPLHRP

## LIWGVYGFIR [SEQ ID NO:5, peptide of SRCP1 amino acids 61-70]
Htt^Q46
  HttQ46 aggregation in vitro, individual domain peptides: sufficient to suppress Htt^Q46 aggregation in vitro

## LIWGVYGFIRGGVGLVKWRG [SEQ ID NO:9]
[1]
  solubility in vitro: remained soluble in vitro

## Cn1cnc(N)c2ncnc1-2 [3-MA, 3-Methyladenine, reference compound]
^GFPHtt^ex1Q74; [2]
  aggregated GFPHttex1Q74: significant increase in soluble and aggregated
  soluble GFPHttex1Q74: significant increase in soluble and aggregated

## VI-A: SRCP1 61-70 peptide with amino acids V65 and I69 mutated to alanine (LIWGAYGFAR)
Htt^Q46
  HttQ46 aggregation in vitro, individual domain peptides: loss in activity

B1: ^RFPSRCP1^71-80A: SRCP1 with amino acids 71-80 mutated to alanine (protein)
chain: MTILSTFTSFSNPPKLNKSSFSSSTGSSLSMGSNSFAWGGGWGGFGGPKGGSFNVDIAGNLIWGVYGFIRAAAAAAAAAALQKGCKQP
modifications: left off: large carriers
notes: SRCP1 with amino acids 71-80 mutated to alanine
^GFPHtt^ex1Q74
  ability of SRCP1 mutant to suppress GFPHttex1Q74 aggregation: retained full activity

B2: ^RFPSRCP1^ST1: SRCP1 with all N-terminal serine and threonine residues mutated to alanine (protein)
chain: MAILAAFAAFANPPKLNKAAFAAAAGAALAMGANAFAWGGGWGGFGGPKGGSFNVDIAGNLIWGVYGFIRGGVGLVKWRGLQKGCKQP
modifications: left off: large carriers
notes: SRCP1 with all N-terminal serine and threonine residues mutated to alanine
^GFPHtt^ex1Q74
  ability of SRCP1 mutant to suppress GFPHttex1Q74 aggregation: did not disrupt SRCP1's ability to suppress polyQ aggregation

B3: ^RFPSRCP1^61-70A: SRCP1 with amino acids 61-70 mutated to alanine (protein)
chain: MTILSTFTSFSNPPKLNKSSFSSSTGSSLSMGSNSFAWGGGWGGFGGPKGGSFNVDIAGNAAAAAAAAAAGGVGLVKWRGLQKGCKQP
modifications: left off: large carriers
notes: SRCP1 with amino acids 61-70 mutated to alanine
^GFPHtt^ex1Q74
  ability of SRCP1 mutant to suppress GFPHttex1Q74 aggregation: lost the ability to suppress

B4: ^RFPSRCP1^I69A: SRCP1 point mutant, I69 mutated to alanine (protein)
chain: B3 chain with A61L, A62I, A63W, A64G, A65V, A66Y, A67G, A68F, A70R
modifications: left off: large carriers
notes: SRCP1 point mutant, I69 mutated to alanine
^GFPHtt^ex1Q74
  ability of SRCP1 point mutant to suppress GFPHttex1Q74 aggregation: resulted in a decrease in SRCP1 function

B5: ^RFPSRCP1^V65A: SRCP1 point mutant, V65 mutated to alanine (protein)
chain: B3 chain with A61L, A62I, A63W, A64G, A66Y, A67G, A68F, A69I, A70R
modifications: left off: large carriers
notes: SRCP1 point mutant, V65 mutated to alanine
^GFPHtt^ex1Q74
  ability of SRCP1 point mutant to suppress GFPHttex1Q74 aggregation: resulted in a decrease in SRCP1 function
